Reference: article PMC9135631 (2022)

B1: Latrophilin-3 ADHD-related variant R465S (Lphn3^R465S) (receptor)
chain: MWPSQLLIFMMLLAPIIHAFSRAPIPMAVVRRELSCESYPIELRCPGTDVIMIESANYGRTDDKICDSDPAQMENIRCYLPDAYKIMSQRCNNRTQCAVVAGPDVFPDPCPGTYKYLEVQYECVPYKVEQKVFLCPGLLKGVYQSEHLFESDHQSGAWCKDPLQASDKIYYMPWTPYRTDTLTEYSSKDDFIAGRPTTTYKLPHRVDGTGFVVYDGALFFNKERTRNIVKFDLRTRIKSGEAIIANANYHDTSPYRWGGKSDIDLAVDENGLWVIYATEQNNGKIVISQLNPYTLRIEGTWDTAYDKRSASNAFMICGILYVVKSVYEDDDNEATGNKIDYIYNTDQSKDSLVDVPFPNSYQYIAAVDYNPRDNLLYVWNNYHVVKYSLDFGPLDSRSGQAHHGQVSYISPPIHLDSELERPSVKDISTTGPLGMGSTTTSTTLRTTTLSPGRSTTPSVSGRRNSSTSTPSPAVEVLDDMTTHLPSASSQIPALEESCEAVEAREIMWFKTRQGQIAKQPCPAGTIGVSTYLCLAPDGIWDPQGPDLSNCSSPWVNHITQKLKSGETAANIARELAEQTRNHLNAGDITYSVRAMDQLVGLLDVQLRNLTPGGKDSAARSLNKLQKRERSCRAYVQAMVETVNNLLQPQALNAWRDLTTSDQLRAATMLLHTVEESAFVLADNLLKTDIVRENTDNIKLEVARLSTEGNLEDLKFPENMGHGSTIQLSANTLKQNGRNGEIRVAFVLYNNLGPYLSTENASMKLGTEALSTNHSVIVNSPVITAAINKEFSNKVYLADPVVFTVKHIKQSEENFNPNCSFWSYSKRTMTGYWSTQGCRLLTTNKTHTTCSCNHLTNFAVLMAHVEVKHSDAVHDLLLDVITWVGILLSLVCLLICIFTFCFFRGLQSDRNTIHKNLCISLFVAELLFLIGINRTDQPIACAVFAALLHFFFLAAFTWMFLEGVQLYIMLVEVFESEHSRRKYFYLVGYGMPALIVAVSAAVDYRSYGTDKVCWLRLDTYFIWSFIGPATLIIMLNVIFLGIALYKMFHHTAILKPESGCLDNINYEDNRPFIKSWVIGAIALLCLLGLTWAFGLMYINESTVIMAYLFTIFNSLQGMFIFIFHCVLQKKVRKEYGKCLRTHCCSGKSTESSIGSGKTSGSRTPGRYSTGSQSRIRRMWNDTVRKQSESSFITGDINSSASLNREPYRETSMGVKLNIAYQIGASEQCQGYKCHGYSTTEW
B2: Latrophilin-3 ADHD-related variant D615N (Lphn3^D615N) (receptor)
chain: MWPSQLLIFMMLLAPIIHAFSRAPIPMAVVRRELSCESYPIELRCPGTDVIMIESANYGRTDDKICDSDPAQMENIRCYLPDAYKIMSQRCNNRTQCAVVAGPDVFPDPCPGTYKYLEVQYECVPYKVEQKVFLCPGLLKGVYQSEHLFESDHQSGAWCKDPLQASDKIYYMPWTPYRTDTLTEYSSKDDFIAGRPTTTYKLPHRVDGTGFVVYDGALFFNKERTRNIVKFDLRTRIKSGEAIIANANYHDTSPYRWGGKSDIDLAVDENGLWVIYATEQNNGKIVISQLNPYTLRIEGTWDTAYDKRSASNAFMICGILYVVKSVYEDDDNEATGNKIDYIYNTDQSKDSLVDVPFPNSYQYIAAVDYNPRDNLLYVWNNYHVVKYSLDFGPLDSRSGQAHHGQVSYISPPIHLDSELERPSVKDISTTGPLGMGSTTTSTTLRTTTLSPGRSTTPSVSGRRNRSTSTPSPAVEVLDDMTTHLPSASSQIPALEESCEAVEAREIMWFKTRQGQIAKQPCPAGTIGVSTYLCLAPDGIWDPQGPDLSNCSSPWVNHITQKLKSGETAANIARELAEQTRNHLNAGDITYSVRAMDQLVGLLDVQLRNLTPGGKNSAARSLNKLQKRERSCRAYVQAMVETVNNLLQPQALNAWRDLTTSDQLRAATMLLHTVEESAFVLADNLLKTDIVRENTDNIKLEVARLSTEGNLEDLKFPENMGHGSTIQLSANTLKQNGRNGEIRVAFVLYNNLGPYLSTENASMKLGTEALSTNHSVIVNSPVITAAINKEFSNKVYLADPVVFTVKHIKQSEENFNPNCSFWSYSKRTMTGYWSTQGCRLLTTNKTHTTCSCNHLTNFAVLMAHVEVKHSDAVHDLLLDVITWVGILLSLVCLLICIFTFCFFRGLQSDRNTIHKNLCISLFVAELLFLIGINRTDQPIACAVFAALLHFFFLAAFTWMFLEGVQLYIMLVEVFESEHSRRKYFYLVGYGMPALIVAVSAAVDYRSYGTDKVCWLRLDTYFIWSFIGPATLIIMLNVIFLGIALYKMFHHTAILKPESGCLDNINYEDNRPFIKSWVIGAIALLCLLGLTWAFGLMYINESTVIMAYLFTIFNSLQGMFIFIFHCVLQKKVRKEYGKCLRTHCCSGKSTESSIGSGKTSGSRTPGRYSTGSQSRIRRMWNDTVRKQSESSFITGDINSSASLNREPYRETSMGVKLNIAYQIGASEQCQGYKCHGYSTTEW
B3: Latrophilin-3 ADHD-related variant A247S (Lphn3^A247S) (receptor)
chain: MWPSQLLIFMMLLAPIIHAFSRAPIPMAVVRRELSCESYPIELRCPGTDVIMIESANYGRTDDKICDSDPAQMENIRCYLPDAYKIMSQRCNNRTQCAVVAGPDVFPDPCPGTYKYLEVQYECVPYKVEQKVFLCPGLLKGVYQSEHLFESDHQSGAWCKDPLQASDKIYYMPWTPYRTDTLTEYSSKDDFIAGRPTTTYKLPHRVDGTGFVVYDGALFFNKERTRNIVKFDLRTRIKSGEAIIANSNYHDTSPYRWGGKSDIDLAVDENGLWVIYATEQNNGKIVISQLNPYTLRIEGTWDTAYDKRSASNAFMICGILYVVKSVYEDDDNEATGNKIDYIYNTDQSKDSLVDVPFPNSYQYIAAVDYNPRDNLLYVWNNYHVVKYSLDFGPLDSRSGQAHHGQVSYISPPIHLDSELERPSVKDISTTGPLGMGSTTTSTTLRTTTLSPGRSTTPSVSGRRNRSTSTPSPAVEVLDDMTTHLPSASSQIPALEESCEAVEAREIMWFKTRQGQIAKQPCPAGTIGVSTYLCLAPDGIWDPQGPDLSNCSSPWVNHITQKLKSGETAANIARELAEQTRNHLNAGDITYSVRAMDQLVGLLDVQLRNLTPGGKDSAARSLNKLQKRERSCRAYVQAMVETVNNLLQPQALNAWRDLTTSDQLRAATMLLHTVEESAFVLADNLLKTDIVRENTDNIKLEVARLSTEGNLEDLKFPENMGHGSTIQLSANTLKQNGRNGEIRVAFVLYNNLGPYLSTENASMKLGTEALSTNHSVIVNSPVITAAINKEFSNKVYLADPVVFTVKHIKQSEENFNPNCSFWSYSKRTMTGYWSTQGCRLLTTNKTHTTCSCNHLTNFAVLMAHVEVKHSDAVHDLLLDVITWVGILLSLVCLLICIFTFCFFRGLQSDRNTIHKNLCISLFVAELLFLIGINRTDQPIACAVFAALLHFFFLAAFTWMFLEGVQLYIMLVEVFESEHSRRKYFYLVGYGMPALIVAVSAAVDYRSYGTDKVCWLRLDTYFIWSFIGPATLIIMLNVIFLGIALYKMFHHTAILKPESGCLDNINYEDNRPFIKSWVIGAIALLCLLGLTWAFGLMYINESTVIMAYLFTIFNSLQGMFIFIFHCVLQKKVRKEYGKCLRTHCCSGKSTESSIGSGKTSGSRTPGRYSTGSQSRIRRMWNDTVRKQSESSFITGDINSSASLNREPYRETSMGVKLNIAYQIGASEQCQGYKCHGYSTTEW
B4: Latrophilin-3 ADHD-related variant T783M (Lphn3^T783M) (receptor)
chain: MWPSQLLIFMMLLAPIIHAFSRAPIPMAVVRRELSCESYPIELRCPGTDVIMIESANYGRTDDKICDSDPAQMENIRCYLPDAYKIMSQRCNNRTQCAVVAGPDVFPDPCPGTYKYLEVQYECVPYKVEQKVFLCPGLLKGVYQSEHLFESDHQSGAWCKDPLQASDKIYYMPWTPYRTDTLTEYSSKDDFIAGRPTTTYKLPHRVDGTGFVVYDGALFFNKERTRNIVKFDLRTRIKSGEAIIANANYHDTSPYRWGGKSDIDLAVDENGLWVIYATEQNNGKIVISQLNPYTLRIEGTWDTAYDKRSASNAFMICGILYVVKSVYEDDDNEATGNKIDYIYNTDQSKDSLVDVPFPNSYQYIAAVDYNPRDNLLYVWNNYHVVKYSLDFGPLDSRSGQAHHGQVSYISPPIHLDSELERPSVKDISTTGPLGMGSTTTSTTLRTTTLSPGRSTTPSVSGRRNRSTSTPSPAVEVLDDMTTHLPSASSQIPALEESCEAVEAREIMWFKTRQGQIAKQPCPAGTIGVSTYLCLAPDGIWDPQGPDLSNCSSPWVNHITQKLKSGETAANIARELAEQTRNHLNAGDITYSVRAMDQLVGLLDVQLRNLTPGGKDSAARSLNKLQKRERSCRAYVQAMVETVNNLLQPQALNAWRDLTTSDQLRAATMLLHTVEESAFVLADNLLKTDIVRENTDNIKLEVARLSTEGNLEDLKFPENMGHGSTIQLSANTLKQNGRNGEIRVAFVLYNNLGPYLSTENASMKLGTEALSTNHSVIVNSPVIMAAINKEFSNKVYLADPVVFTVKHIKQSEENFNPNCSFWSYSKRTMTGYWSTQGCRLLTTNKTHTTCSCNHLTNFAVLMAHVEVKHSDAVHDLLLDVITWVGILLSLVCLLICIFTFCFFRGLQSDRNTIHKNLCISLFVAELLFLIGINRTDQPIACAVFAALLHFFFLAAFTWMFLEGVQLYIMLVEVFESEHSRRKYFYLVGYGMPALIVAVSAAVDYRSYGTDKVCWLRLDTYFIWSFIGPATLIIMLNVIFLGIALYKMFHHTAILKPESGCLDNINYEDNRPFIKSWVIGAIALLCLLGLTWAFGLMYINESTVIMAYLFTIFNSLQGMFIFIFHCVLQKKVRKEYGKCLRTHCCSGKSTESSIGSGKTSGSRTPGRYSTGSQSRIRRMWNDTVRKQSESSFITGDINSSASLNREPYRETSMGVKLNIAYQIGASEQCQGYKCHGYSTTEW

Biological target: 8xHis-tagged Teneurin-2 extracellular domain (Ten2^ECD-His) (UniProt Q9NT68 401-2774, HA/Flag epitopes left out; isoform assumed; signal peptide removed and GPS autoproteolysis expected)

| Binder | Kd |
| --- | --- |
| B1 | 1.06 nM |
| B2 | 0.896 nM |
| B3 | 1.15 nM |
| B4 | 0.756 nM |
